15 molecules from paper PMC314469, “Protein Interaction Networks by Proteome Peptide Scanning” (PLoS Biology, 2004) can be followed below.

Where only a bound is given, the exact number is not on record here.

The target of test [1] is T1, BOI2 SH3 domain (Saccharomyces cerevisiae).
T1 chain: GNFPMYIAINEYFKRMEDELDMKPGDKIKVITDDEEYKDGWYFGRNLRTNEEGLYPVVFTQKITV
The test is described as follows: SPR. Particulars: modification not given.

Test [2] concerns the target T2, YFR024C SH3 domain (Saccharomyces cerevisiae).
T2 chain: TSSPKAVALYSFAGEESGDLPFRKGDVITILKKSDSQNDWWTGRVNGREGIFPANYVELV
Put plainly: SPR. Particulars: modification not given.

For test [3], the target named is T3, YSC84 SH3 domain (Saccharomyces cerevisiae).
T3 chain: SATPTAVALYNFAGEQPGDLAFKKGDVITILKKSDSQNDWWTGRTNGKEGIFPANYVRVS
Put plainly: SPR. Conditions: modification not given.

The target in test [4] is T4, RVS167 SH3 domain (Saccharomyces cerevisiae).
T4 chain: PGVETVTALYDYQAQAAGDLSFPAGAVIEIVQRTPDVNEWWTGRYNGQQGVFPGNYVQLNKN
Put plainly: SPR. Particulars: modification not given.

The target in test [5] is T5, GST-Abp1 SH3 domain (S. cerevisiae), P15891.
T5 chain: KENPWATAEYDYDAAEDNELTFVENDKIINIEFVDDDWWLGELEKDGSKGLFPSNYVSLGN
Put plainly: SPR. Particulars: modification not given.

Test [6] addresses T6, Boi2 SH3 (BOI2_YEAST), P39969.
T6 chain: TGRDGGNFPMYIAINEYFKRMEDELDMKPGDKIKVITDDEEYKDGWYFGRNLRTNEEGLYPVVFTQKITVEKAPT
The test is described as follows: SPOT array.

Test [7] addresses T7, Rvs167 SH3 (RV167_YEAST), P39743.
T7 chain: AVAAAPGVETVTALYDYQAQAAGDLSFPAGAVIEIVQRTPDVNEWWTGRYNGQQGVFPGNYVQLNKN
The test is described as follows: SPOT array.

Test [8] deals with T8, Boi1 SH3 (BOI1_YEAST), P38041.
T8 chain: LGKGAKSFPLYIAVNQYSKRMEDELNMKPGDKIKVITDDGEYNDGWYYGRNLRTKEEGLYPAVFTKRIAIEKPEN
Put plainly: SPOT array.

For test [9], the target named is T9, Myo5 SH3 (MYO5_YEAST), Q04439.
T9 chain: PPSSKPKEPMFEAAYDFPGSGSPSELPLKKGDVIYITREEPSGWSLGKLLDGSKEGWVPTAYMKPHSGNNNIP
The test is described as follows: SPOT array.

Test [10] has as its target T10, Yhr016c SH3 (YSC84_YEAST), P32793.
T10 chain: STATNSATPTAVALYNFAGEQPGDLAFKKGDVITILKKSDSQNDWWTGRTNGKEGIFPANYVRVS
Put plainly: SPOT array.

Test [11] addresses T11, Yfr024 SH3 (LSB3_YEAST), P43603.
T11 chain: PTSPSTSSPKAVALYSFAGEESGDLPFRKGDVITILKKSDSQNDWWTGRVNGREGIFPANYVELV
Put plainly: SPOT array.

For test [12], the target named is T12, Abp1 SH3 (ABP1_YEAST), P15891.
T12 chain: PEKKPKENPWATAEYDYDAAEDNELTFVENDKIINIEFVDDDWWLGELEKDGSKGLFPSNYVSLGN
Put plainly: SPOT array.

In test [13] the target is Sho1 SH3 (SHO1_YEAST), P40073. Put plainly: SPOT array.
Chain of Sho1 SH3 (SHO1_YEAST), P40073 (P40073 295-366): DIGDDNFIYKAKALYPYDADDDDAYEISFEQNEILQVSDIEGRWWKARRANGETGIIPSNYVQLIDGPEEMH

B1: DEM1 peptide … (peptide)
chain: DIKTRSVPKIPSIE
As to B1, the Kd in test [1], in test [2], in test [3] and in test [4] was greater than 100 µM in each case.

B2: YBR108W peptide … (peptide)
chain: NAPERAVPILPPRN
The molecule B2 returned a Kd in test [1] greater than 100 µM.

B3: INP52 peptide … (peptide)
chain: ASTKPEKPPVVKKP
B3 gave a Kd in [5] greater than 100 µM.

B4: LAS17 peptide … (peptide)
chain: RPLPQLPNRNNRPV
Take B4: the dissociation constant (Kd) in [1] is greater than 100 µM; in [2], 8.9 µM; in test [3], 9.6 µM; in test [5] it was greater than 100 µM.

B5: YPR095C 154-167 (peptide)
chain: KRNSKHAPFIPVKP
Regarding B5, the normalised SPOT signal, Boehringer light units (BLU); mean over the file's lines of this peptide came out at 37 in [6]; 68.7 in test [7]; 412 in [8]; 382 in test [9]; 150 in [10]; 751 in test [11]. The normalised SPOT signal, Boehringer light units (BLU); mean over the file's lines of this peptide came out at 1030 in test [12] and 86.4 in [13].

B6: YNL139C 1275-1288 (peptide)
chain: YTYSRNEPVIPTKP
Consider B6, for which the normalised SPOT signal, Boehringer light units (BLU); mean over the file's lines of this peptide is -0 in test [6]; 68.4 in test [7]; -0 in test [8]; 210 in [9]; 15.9 in test [10]; 242 in [11]. Moreover, the normalised SPOT signal, Boehringer light units (BLU); mean over the file's lines of this peptide is 224 in test [12] and 44.7 in test [13].

B7: YDR359C 772-785 (peptide)
chain: ENTPRPNPTQPRKP
Take B7: the normalised SPOT signal, Boehringer light units (BLU); mean over the file's lines of this peptide worked out at 0 in test [6]; 53.6 in test [7]; 154 in test [8]; 137 in test [9]; 54.9 in [10]; 205 in test [11]. For the same molecule, the normalised SPOT signal, Boehringer light units (BLU); mean over the file's lines of this peptide stood at 102 in [12] and 13.1 in test [13].

B8: YOR058C 189-202 (peptide)
chain: LQESKTVPQSPKKP
As for B8, the normalised SPOT signal, Boehringer light units (BLU); mean over the file's lines of this peptide in [6] turned out to be 15.3; in test [7], 50.4; in test [8], 22.8; in test [9], 159; in test [10], 9.2; in test [11], 19.6. Besides, the normalised SPOT signal, Boehringer light units (BLU); mean over the file's lines of this peptide came to 224 in test [12] and 37.8 in test [13].

B9: YBR239C peptide … (peptide)
chain: NQPDLPPRKIMIP
As to B9, the equilibrium dissociation constant (Kd) is greater than 100 µM in test [1]; 22 µM in test [2]; 16 µM in [3]; 39 µM in [4]; greater than 100 µM in test [5].

B10: YBR108W 80-93 (peptide)
chain: LKDPKSFPPPPLKP
As for B10, the normalised SPOT signal, Boehringer light units (BLU); mean over the file's lines of this peptide in test [6] was determined as 45.6; in [7] it was 78.4; in test [8], 55.3; in test [9], 253; in test [10], 6.5; in [11] it was 62.9. The normalised SPOT signal, Boehringer light units (BLU); mean over the file's lines of this peptide is 124 in test [12] and 78.9 in [13].

B11: ACF2 peptide … (peptide)
chain: GTTNRGPPPLPPRA
In test [1], B11 had a dissociation constant Kd greater than 100 µM.

B12: YBR108W peptide … (peptide)
chain: RAVPILPPRNNVEP
Consider B12, for which the equilibrium dissociation constant (Kd) in test [1] was greater than 100 µM; in test [3] it was 13 µM; in [4], 39 µM.

B13: YDR151C 76-89 (peptide)
chain: EYSPRPSPWLPSKP
B13: the normalised SPOT signal, Boehringer light units (BLU); mean over the file's lines of this peptide in test [6] was 22.4; in [7], 54.8; in [8], 184; in test [9], 73.7; in [10] it was 107; in [11], 668. The normalised SPOT signal, Boehringer light units (BLU); mean over the file's lines of this peptide stood at 519 in test [12] and 34.7 in test [13].

B14: LAS17 peptide … (peptide)
chain: PQQNRPLPQLPNRN
Consider B14, for which the values for the dissociation constant Kd in test [1] and in test [4] were greater than 100 µM and 32 µM, respectively.

B15: ACF2 peptide … (peptide)
chain: RGPPPLPPRANVQP
As to B15, the dissociation constant (Kd) in test [1] was greater than 100 µM.

By Kd is commonly meant the constant that tells how readily two partners part at equilibrium. Higher therefore signals weaker binding.
